The target of test [1] is polyphosphorylated full-length SARS-CoV-2 nucleocapsid protein pN.1-419 (SARS-CoV-2) (UniProt P0DTC9). As to the kind of experiment: SEC-MALS. Background: SEC sorts molecules by how far they enter the pores of the column.
Test [2] has the same target. As to the kind of experiment: SEC.

In general, Kd refers to the free concentration of one partner at which half of the binding sites on the other are occupied at equilibrium, for simple one-to-one binding. In test [1], “untagged full-length human 14-3-3γ (from UniProt P61981 1-247) (natural protein)” registered a stoichiometry N (14-3-3γ chains per pN.1-419 chain (2:2)) of 1. In test [2], this substance registered a Kd of 1.5 µM and a stoichiometry N (14-3-3γ chains per pN.1-419 chain (2:2)) of 1.

The record behind these values is article PMC7863765.
